Measurements reported in patent publication US20150306193.

Biological target: T1, purified mouse serpinB13 (GenScript) (UniProt Q8CDC0)
T1 sequence: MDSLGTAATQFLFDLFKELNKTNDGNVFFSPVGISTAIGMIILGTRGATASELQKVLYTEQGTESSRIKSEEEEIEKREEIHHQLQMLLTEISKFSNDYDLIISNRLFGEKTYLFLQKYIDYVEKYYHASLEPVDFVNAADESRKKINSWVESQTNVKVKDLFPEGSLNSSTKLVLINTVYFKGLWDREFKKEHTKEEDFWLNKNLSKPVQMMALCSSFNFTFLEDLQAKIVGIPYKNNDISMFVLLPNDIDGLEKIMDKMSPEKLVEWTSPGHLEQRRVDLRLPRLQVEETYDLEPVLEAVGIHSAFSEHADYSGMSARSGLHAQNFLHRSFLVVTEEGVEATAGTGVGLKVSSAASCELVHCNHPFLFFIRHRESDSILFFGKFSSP

Cathepsin L (Calbiochem)
cleavage of (CBZ-Phe-Arg)2-R110 substrate by cathepsin L in the presence of serpinB13 (fold induction of maximum fluorescence over background): cathepsin L-mediated cleavage of the fluorescent substrate (CBZ-Phe-Arg)2-R110 from inhibition by serpinB13 in vitro
